Data reported in patent EP4681729A1 (Shanghai Mabgen Biotech Ltd., dated 2026).
Where two headings read alike, the source gives them in different places.

Columns and labels:
[1] = target: T1, human PVRIG expressed on cells (human, UniProt Q6DKI7 1-326); assay: cell-based or functional assay
T1 sequence (looked up): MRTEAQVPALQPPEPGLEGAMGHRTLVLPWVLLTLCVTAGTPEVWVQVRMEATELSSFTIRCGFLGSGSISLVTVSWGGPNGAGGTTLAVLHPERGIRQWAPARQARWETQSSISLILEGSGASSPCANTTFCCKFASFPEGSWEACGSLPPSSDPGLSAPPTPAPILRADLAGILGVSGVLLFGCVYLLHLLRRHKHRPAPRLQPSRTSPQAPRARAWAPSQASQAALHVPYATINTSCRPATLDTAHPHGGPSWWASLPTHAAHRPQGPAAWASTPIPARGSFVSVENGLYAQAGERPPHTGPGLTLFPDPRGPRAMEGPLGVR

[2] = target: T1, human PVRIG expressed on cells; assay: cell-based or functional assay; remark: listed apart in the source

PVRIG reporter gene cell activity EC50 [1]: 1.38 nM | PVRIG reporter gene cell activity EC50 [2]: 0.74 nM
B1: Tab5 (antibody, V domains shown)
VH: EVQLVESGGGVVKPGGSLRLSCAASGFTFGTSSMNWVRQAPGKGLEWVAVISFDGTEIHYADSVKGRFTISRDNSKSTVFLQMNSLRPDDTALYYCAKGSGNIYFYSGMDVWGQGTTVTVSS
VL: DIQMTQSPSTLSASVGDRVTITCRAGQSISGWLAWFQQKPGKAPNLLIYETSTLESGVPSRFSGSGSGTEYTLTISSLQPDDFATYYCQQYYSYPLTFGQGTKVEIKR
